According to article doi:10.1101/2022.10.21.513149, “Time-resolved cryo-EM using a combination of droplet microfluidics with on-demand jetting” (bioRxiv, 2022):

Experiments:
GroEL = biological target: T1, GroEL (Escherichia coli MG1655, UniProt P0A6F5 1-548); assay: cryo-EM structure; steady state continuous turnover reference, conventional plunger at around 20 s after the start of the reaction; GroEL (3.7 mg/ml) mixed with GroES (0.7 mg/ml), ATP (2 mM), CHAPS (0.1 %); 22 °C; fractions of complexes from 3D classification of particles; settings: both partners purified
T1 construct: GroEL of Escherichia coli MG1655; synthetic construct based on the GroEL gene, in a pET-15b vector; also called GroEL-ATP; GroEL-(ADP); source: E. coli BL21, purified (ammonium sulfate cuts, Source Q15 anion exchange, Superose gel filtration); copies: 14

[1] = biological target: the molecule itself; assay: as above

T1 sequence (P0A6F5 whole entry): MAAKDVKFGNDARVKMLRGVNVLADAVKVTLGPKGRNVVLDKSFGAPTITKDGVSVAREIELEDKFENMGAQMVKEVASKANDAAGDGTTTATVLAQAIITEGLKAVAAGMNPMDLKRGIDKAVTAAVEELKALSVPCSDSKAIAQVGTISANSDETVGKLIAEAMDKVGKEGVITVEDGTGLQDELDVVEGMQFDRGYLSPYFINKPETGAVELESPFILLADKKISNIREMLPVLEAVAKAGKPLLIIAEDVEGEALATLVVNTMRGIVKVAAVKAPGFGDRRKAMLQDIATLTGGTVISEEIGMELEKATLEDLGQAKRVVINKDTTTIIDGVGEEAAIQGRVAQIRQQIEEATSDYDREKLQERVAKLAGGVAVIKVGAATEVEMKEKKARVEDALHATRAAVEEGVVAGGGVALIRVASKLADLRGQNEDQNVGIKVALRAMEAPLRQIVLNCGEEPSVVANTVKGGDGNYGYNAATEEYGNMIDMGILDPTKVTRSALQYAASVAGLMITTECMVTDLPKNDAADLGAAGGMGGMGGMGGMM

B1: GroES (natural protein, Escherichia coli MG1655, UniProt P0A6F9 1-97, looked up)
chain: MNIRPLHDRVIVKRKEVETKSAGGIVLTGSAAAKSTRGEVLAVGNGRILENGEVKPLDVKVGDIVIFNDGYGVKSEKIDNEEVLIMSESDILAIVEA
notes: GroES of Escherichia coli MG1655; synthetic construct based on the GroES gene, in a pET-15b vector; source: E. coli BL21, purified (Source Q15 anion exchange, Superdex 200 gel filtration)
How did the “stoichiometry N” value (GroEL) turn out when B1 was run?
Its value is 2.

Does B1 bind [1]?
Result: binds
